Molecular target: T1, soluble H-2 K^b (K^bsol): heterodimer of truncated K^b heavy chain and murine β-2 microglobulin, purified from Drosophila cells (murine), P01901
T1 chain 1: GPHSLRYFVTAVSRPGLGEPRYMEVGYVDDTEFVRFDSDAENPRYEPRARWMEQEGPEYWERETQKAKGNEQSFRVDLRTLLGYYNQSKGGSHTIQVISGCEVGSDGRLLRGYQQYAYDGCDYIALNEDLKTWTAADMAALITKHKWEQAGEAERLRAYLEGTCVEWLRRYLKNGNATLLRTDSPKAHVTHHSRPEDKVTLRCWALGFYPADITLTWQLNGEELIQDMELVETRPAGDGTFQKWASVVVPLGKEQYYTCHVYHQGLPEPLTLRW
T1 chain 2: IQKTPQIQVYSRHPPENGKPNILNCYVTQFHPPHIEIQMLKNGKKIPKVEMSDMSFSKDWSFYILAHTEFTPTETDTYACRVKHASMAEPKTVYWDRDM

| Binder | Kd [nM] |
| --- | --- |
| SIINFEKLTE (modifications not checked) [OVA-10C] | 14 |
| LESIINFEKL (modifications not checked) [OVA-10N] | 280 |
| SIINFEKLT (modifications not checked) [OVA-9C] | 11 |
| SIINFEKL (modifications not checked) [OVA-8 (ovalbumin 257-264)] | 4.1 |
